Source: patent publication US20210032365A1 (Chugai, published 2021)

T1: Serum-derived human C1s (human, UniProt P09871 16-688)
T1 construct: The analyte was C1s purified from serum; also called hC1s
T1 sequence: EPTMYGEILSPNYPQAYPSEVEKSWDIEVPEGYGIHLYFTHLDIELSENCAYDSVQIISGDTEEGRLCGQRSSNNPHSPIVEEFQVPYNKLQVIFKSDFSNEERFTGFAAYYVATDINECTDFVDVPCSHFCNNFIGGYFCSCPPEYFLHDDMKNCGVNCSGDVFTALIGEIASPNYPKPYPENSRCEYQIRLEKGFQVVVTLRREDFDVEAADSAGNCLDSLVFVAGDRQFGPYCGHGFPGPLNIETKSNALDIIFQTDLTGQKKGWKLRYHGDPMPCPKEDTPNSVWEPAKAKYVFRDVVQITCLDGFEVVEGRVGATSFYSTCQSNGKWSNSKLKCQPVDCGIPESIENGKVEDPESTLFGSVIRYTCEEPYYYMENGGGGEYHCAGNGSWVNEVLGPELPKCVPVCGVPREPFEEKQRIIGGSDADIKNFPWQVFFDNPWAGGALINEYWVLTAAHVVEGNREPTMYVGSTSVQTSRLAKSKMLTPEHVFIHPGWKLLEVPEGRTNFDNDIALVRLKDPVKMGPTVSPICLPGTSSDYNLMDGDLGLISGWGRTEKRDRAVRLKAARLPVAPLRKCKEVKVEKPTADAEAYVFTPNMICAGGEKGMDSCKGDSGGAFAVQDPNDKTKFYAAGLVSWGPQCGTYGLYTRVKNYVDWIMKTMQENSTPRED


What was measured:
Serum-derived human C1s [1] = target: T1, Serum-derived human C1s; experiment: SPR Biacore T200, 37 C, antibody captured on protein A/G, pH 5.8, 1.2 mM CaCl2
Description: (§1) The binding affinity of all histidine-substituted variants at pH 7.4 and pH 5.8 were determined at 37 degrees C. using Biacore T200 instrument (GE Healthcare). Recombinant Protein A/G (Pierce) was immobilized onto all flow cells of a CM4 sensor chip using amine coupling kit (GE Healthcare). Antibodies and analytes were prepared in 7(+) buffer (20 mM ACES, 150 mM NaCl, 1.2 mM CaCl2, 0.05% Tween 20, 0.005% NaN3, pH 7.4) or 5(+) buffer (20 mM ACES, 150 mM NaCl, 1.2 mM CaCl2), 0.05% Tween 20, 0.005% NaN3, pH 5.8). Each antibody was captured onto the sensor surface by protein A/G. Antibody capture levels were aimed at 200 resonance unit (RU). […] Sensor surface was regenerated each cycle with 10 mM Glycine-HCl pH 1.5. […] An additional dissociation phase at pH 5.8 was integrated immediately after the dissociation phase at pH 7.4. This dissociation rate in 5(+) buffer was determined by processing and fitting data using Scrubber 2.0 (BioLogic Software) curve fitting software.

Serum-derived human C1s [2] = target: T1, Serum-derived human C1s; experiment: SPR Biacore T200, 37 C, ratio of dissociation rates pH 5.8 / pH 7.4, 1.2 mM CaCl2
Description: as §1

Serum-derived human C1s [3] = target: T1, Serum-derived human C1s; experiment: SPR Biacore T200, 37 C, ratio of KD pH 5.8 / pH 7.4, 1.2 mM CaCl2
Description: as §1, with “software. […]” for “software.”

Serum-derived human C1s [4] = target: T1, Serum-derived human C1s; experiment: SPR Biacore T200, 37 C, antibody captured on protein A/G, pH 7.4, 1.2 mM CaCl2
Description: as §1

Binder	koff (Serum-derived human C1s [1])	kon (Serum-derived human C1s [1])	koff (5.8+ of 775+)/koff (7.4+) (Serum-derived human C1s [2])	KD (5.8+)/KD (7.4+) (Serum-derived human C1s [3])	kon (Serum-derived human C1s [4])	Kd (Serum-derived human C1s [1])	Kd (Serum-derived human C1s [4])
IPN92H0033/IPN93L0024-SG136 (antibody, human IgG1, kappa) heavy: EVMLVESGGGLVKPGGSLRLSCAASGFTFSNYAMSWVRQAPGKGLEWVATISSGGSHTYYLDSVKGRFTISRDNSKDTLYLQMNSLRAEDTALYYCARLFTGHAMDYWGQGTLVTVSSASTKGPSVFPLAPSSKSTSGGTAALGCLVKDYFPEPVTVSWNSGALTSGVHTFPAVLQSSGLYSLSSVVTVPSSSLGTQTYICNVNHKPSNTKVDKKVEPKSCDKTHTCPPCPAPELRRGPSVFLFPPKPKDTLMISRTPEVTCVVVDVSHEDPEVKFNWYVDGVEVHNAKTKPREEQYNSTYRVVSVLTVLHQDWLNGKEYKCKVSNKGLPSSIEKTISKAKGQPREPQVYTLPPSREEMTKNQVSLTCLVKGFYPSDIAVEWESNGQPENNYKTTPPVLDSDGSFFLYSKLTVDKSRWQQGNVFSCSVMHEALHNHYTQKSLSLSP light: QIVLTQSPATLSLSPGERATLSCTASSSVSSSYLHWYQQKPGKAPKLWIYSTSNLASGVPSRFSGSGSGTDYTLTISSLQPEDFATYYCHQYYRLHPITFGQGTKLEIKRTVAAPSVFIFPPSDEQLKSGTASVVCLLNNFYPREAKVQWKVDNALQSGNSQESVTEQDSKDCTYSLSSTLTLSKADYEKHKVYACEVTHQGLSSPVTKSFNRGEC	0.0031 s⁻¹	261000 M⁻¹ s⁻¹	5.1	4.7	227000 M⁻¹ s⁻¹	–	–
IPN92H0038/IPN93L0024-SG136 (antibody, human IgG1, kappa, name in Kabat numbering, Substitutions are numbered by Kabat) heavy: EVMLVESGGGLVKPGGSLRLSCAASGFTFSNYAMSWVRQAPGKGLEWVATISSGGSHTYYLDSVKHRFTISRDNSKDTLYLQMNSLRAEDTALYYCARLFTGHAMDYWGQGTLVTVSSASTKGPSVFPLAPSSKSTSGGTAALGCLVKDYFPEPVTVSWNSGALTSGVHTFPAVLQSSGLYSLSSVVTVPSSSLGTQTYICNVNHKPSNTKVDKKVEPKSCDKTHTCPPCPAPELRRGPSVFLFPPKPKDTLMISRTPEVTCVVVDVSHEDPEVKFNWYVDGVEVHNAKTKPREEQYNSTYRVVSVLTVLHQDWLNGKEYKCKVSNKGLPSSIEKTISKAKGQPREPQVYTLPPSREEMTKNQVSLTCLVKGFYPSDIAVEWESNGQPENNYKTTPPVLDSDGSFFLYSKLTVDKSRWQQGNVFSCSVMHEALHNHYTQKSLSLSP light: QIVLTQSPATLSLSPGERATLSCTASSSVSSSYLHWYQQKPGKAPKLWIYSTSNLASGVPSRFSGSGSGTDYTLTISSLQPEDFATYYCHQYYRLHPITFGQGTKLEIKRTVAAPSVFIFPPSDEQLKSGTASVVCLLNNFYPREAKVQWKVDNALQSGNSQESVTEQDSKDCTYSLSSTLTLSKADYEKHKVYACEVTHQGLSSPVTKSFNRGEC	0.00309 s⁻¹	289000 M⁻¹ s⁻¹	7.7	8.9	384000 M⁻¹ s⁻¹	10.7 nM	1.2 nM
IPN92H0281/IPN93L0024-SG136 (antibody, human IgG1, kappa, name in Kabat numbering, Substitutions are numbered by Kabat) heavy: EVMLVESGGGLVKPGGSLRLSCAASGFTFSNYAMSWVRQAPGKGLEWVATISSGGSKTYELDSVDERFTISRDNSKDTLYLQMNSLRAEDTALYYCARLFTKHAMDYWGQGTLVTVSSASTKGPSVFPLAPSSKSTSGGTAALGCLVKDYFPEPVTVSWNSGALTSGVHTFPAVLQSSGLYSLSSVVTVPSSSLGTQTYICNVNHKPSNTKVDKKVEPKSCDKTHTCPPCPAPELRRGPSVFLFPPKPKDTLMISRTPEVTCVVVDVSHEDPEVKFNWYVDGVEVHNAKTKPREEQYNSTYRVVSVLTVLHQDWLNGKEYKCKVSNKGLPSSIEKTISKAKGQPREPQVYTLPPSREEMTKNQVSLTCLVKGFYPSDIAVEWESNGQPENNYKTTPPVLDSDGSFFLYSKLTVDKSRWQQGNVFSCSVMHEALHNHYTQKSLSLSP light: QIVLTQSPATLSLSPGERATLSCTASSSVSSSYLHWYQQKPGKAPKLWIYSTSNLASGVPSRFSGSGSGTDYTLTISSLQPEDFATYYCHQYYRLHPITFGQGTKLEIKRTVAAPSVFIFPPSDEQLKSGTASVVCLLNNFYPREAKVQWKVDNALQSGNSQESVTEQDSKDCTYSLSSTLTLSKADYEKHKVYACEVTHQGLSSPVTKSFNRGEC	0.0267 s⁻¹	217000 M⁻¹ s⁻¹	38.2	60.9	319000 M⁻¹ s⁻¹	123 nM	2.02 nM
